Results published in paper PMC10192418, “High-affinity peptides developed against calprotectin and their application as synthetic ligands in diagnostic assays” (Nature Communications, 2023).
“And” between values parts separate entries of the source, which are not always exact repeats. Equal entries are not always repeated. Ends that are not written are not given here. 5(6)‑carboxyfluorescein = 5(6)-carboxyfluorescein on the N-terminus

T1: native calprotectin derived from granulocytes (human, UniProt P05109 1-93; P06702 1-114)
T1 construct: S100A8 (Mrp-8), human, native; S100A9 (Mrp-14), human, native; Tetramer with calcium, dimer with 1 mM EDTA; also called S100A8/S100A9; Mrp-8/Mrp-14; source: also native in human serum samples; copies: 2 + 2
T1 sequence (looked up) 1: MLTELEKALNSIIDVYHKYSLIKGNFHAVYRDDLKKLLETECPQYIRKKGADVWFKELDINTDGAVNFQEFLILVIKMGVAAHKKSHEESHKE
T1 sequence (looked up) 2: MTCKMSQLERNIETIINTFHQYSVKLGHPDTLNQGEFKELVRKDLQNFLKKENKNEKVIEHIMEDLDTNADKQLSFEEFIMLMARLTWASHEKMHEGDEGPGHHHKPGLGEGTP

T2: recombinant calprotectin B-RCAL lacking the His6-tag and with the heterodimer linker cleaved by 3C protease, … (human, cysteines replaced by serines | cysteines replaced by serines)
T2 construct: rest of the first HRV 3C site after cleavage (LEVLFQ/GP), worked out from the indicated cleavage site; S100A9, human; rest of the second HRV 3C site left on S100A9 after cleavage, worked out from the indicated cleavage site; rest of the second HRV 3C site after cleavage, worked out from the indicated cleavage site; S100A8, human; One heterodimer and one peptide in the asymmetric unit; the …
T2 chain 1: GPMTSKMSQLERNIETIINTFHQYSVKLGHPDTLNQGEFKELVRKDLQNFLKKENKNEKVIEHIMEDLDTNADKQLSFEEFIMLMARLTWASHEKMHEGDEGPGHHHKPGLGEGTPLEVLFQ
T2 chain 2: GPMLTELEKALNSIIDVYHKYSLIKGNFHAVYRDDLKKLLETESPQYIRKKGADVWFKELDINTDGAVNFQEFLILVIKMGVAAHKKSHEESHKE

B1: linear peptide 3 (peptide)
peptide: {5(6)‑carboxyfluorescein}-RSPESVAFPMFQSHWYSG
notes: phage-selected peptide 3 with its four cysteines replaced by serines; Synthesised on rink amide AM resin, so a C-terminal amide is likely (surmised); also called peptide 3 (linear; all four cysteines replaced with serines); source: synthetic peptide (Fmoc solid-phase synthesis, HPLC purified)
B2: B-RCAL (BÜHLMANN recombinant calprotectin; His6-linker-S100A9-linker-S100A8) (complex, human)
chain: MTCKMSQLERNIETIINTFHQYSVKLGHPDTLNQGEFKELVRKDLQNFLKKENKNEKVIEHIMEDLDTNADKQLSFEEFIMLMARLTWASHEKMHEGDEGPGHHHKPGLGEGTPLEVLFQGPMLTELEKALNSIIDVYHKYSLIKGNFHAVYRDDLKKLLETECPQYIRKKGADVWFKELDINTDGAVNFQEFLILVIKMGVAAHKKSHEESHKE
notes: S100A9 (Mrp-14), human; cleavable linker, HRV 3C protease recognition site (LEVLFQ/GP); not cleaved in this molecule; S100A8 (Mrp-8), human; With calcium two fusion chains form the calprotectin tetramer; without calcium (EDTA) a single fusion chain is the 'dimer' (S100A8/S100A9); also called heterodimeric fusion protein; source: provided by BÜHLMANN Laboratories AG

Experiments:
[1] = molecular target: T1, native calprotectin derived from …; assay: fluorescence polarisation; calprotectin serially diluted, fluorescent peptide at 20 nM; 20 mM HEPES, 100 mM NaCl, 2 mM CaCl2, pH 7.5, 1 mM DTT, 0.01% Tween-20; tetrameric calprotectin; Kd calculated on the concentration of the heterodimer (1:1 heterodimer:peptide); conditions: both partners purified
[2] = molecular target: B2; assay: as above; conditions: both partners purified
[3] = molecular target: T2, recombinant calprotectin B-RCAL lacking …; assay: crystal structure; co-crystallisation of cleaved cysteine-free calprotectin (440 μM) with 14-fold excess of linear peptide 3 and 1 mM CaCl2; sitting drop, 18 °C; 0.1 M MIB pH 6.0, 25% PEG 1500; conditions: both partners purified
[4] = molecular target: the molecule itself; assay: dynamic light scattering + other: mass photometry; B-RCAL in 20 mM HEPES, 100 mM NaCl, pH 7.5 with 2 mM CaCl2, 1 h at room temperature; tetramer = two B-RCAL fusion chains

Row | Binder | Kd [1] | Kd [2] | binding result [3] | binding result [4]
1 | B1 | 26 nM | 26 nM and 20 nM | binds | –
2 | B2 | – | – | – | binds
